# Laboratory results published in IntAct's records for PubMed 11698381.
# B1: pH-response regulator protein palA/RIM20 (Saccharomyces cerevisiae), Q12033 (parent)
# chain: MSELLAIPLKRTLEVDFATELSKLIDTTSFQTASFFQSDILKVVDARNNAIAPDISIDGLSALKEYYVILLQLEKKFPNNQIEFTWFQTLSQKSRGTSQYSLQWEKLTIIYNIGCMYSLLALNSNNDAAESLKTSCLYFQNAAGCFKHVLDHQKNLETIPVVDDATLNALTSLMLAQAQECFWFKAVQDKHKDSLIAKLSQQIVDFYCEAINDAQRGKLIRSDWINHLKAKKAYFSAVTYYRIALSFNEKKQFGNVVKALQMGLQFINESTLSSQAKFKTVVESSLKEAQRDNEFIYLQEVPSELPSIKPALMVKPSSSATLLPSIKKDETLFKDLIPIEVMEYCTAYNERQDEYVEQRVTNPLASLNKLLKESLTTFQIPQGLTKVSEAELSHYQASLNNLLINNKNVQVQLDNIEQILNEEAFTDNQLRLKHGTLNWTLPESSTTNTAYYEKLKKLRGYLDEGSAIDKQTNELFQSIDKNLIGSEIRLPESNDPLTNKIKMIIQERNDYIDRTRRKSSEYRILPKIITSYKKNGTVDFEPIFIGHLKYFDEDLRYVNSTKEENIKLIEEVNLSKKNNPGRSGIEPKKMVRIDPRELYIEDLRYSFKLLDEVKENLSAGTAFYENLITSTSNLYNEVQEYDTARRAEKARLDKSLTFEDQ
# Variants of: B1
# Settings: with pacc_yeast RIM101, P33400
# pacc_yeast RIM101, P33400, sequence (P33400 whole entry): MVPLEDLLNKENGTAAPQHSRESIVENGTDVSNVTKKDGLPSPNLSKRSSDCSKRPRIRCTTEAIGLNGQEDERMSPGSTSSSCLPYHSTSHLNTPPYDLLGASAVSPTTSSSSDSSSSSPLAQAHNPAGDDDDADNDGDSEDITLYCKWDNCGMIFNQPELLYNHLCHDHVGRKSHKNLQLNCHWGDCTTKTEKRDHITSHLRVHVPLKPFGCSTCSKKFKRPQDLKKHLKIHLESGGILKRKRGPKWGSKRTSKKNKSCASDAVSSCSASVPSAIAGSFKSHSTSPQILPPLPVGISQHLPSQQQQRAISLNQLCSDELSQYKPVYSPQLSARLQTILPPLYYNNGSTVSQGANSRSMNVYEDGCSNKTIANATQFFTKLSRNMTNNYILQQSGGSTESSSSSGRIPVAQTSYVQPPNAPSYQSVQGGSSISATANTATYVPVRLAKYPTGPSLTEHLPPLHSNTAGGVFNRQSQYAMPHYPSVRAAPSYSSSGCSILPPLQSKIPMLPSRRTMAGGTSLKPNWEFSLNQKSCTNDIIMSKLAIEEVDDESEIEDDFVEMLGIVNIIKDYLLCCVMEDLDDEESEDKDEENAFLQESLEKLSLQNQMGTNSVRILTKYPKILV
row,effect of a mutation on the interaction,Variant
1,disrupting interaction,Q177A;Q179A;E180A
2,disrupting interaction,F623A;Y624A
